Residue numbers refer to the chain shown, from its start.
B1: HK CV07-209 (antibody, V domains shown)
VH: QVQLVESGGGLVKPGGSLRLSCAASGFTFSDYYMSWIRQAPGKGLEWVSYISSSVSTIYYADSVKGRFTISRDNAKNSLYLQMNSLRAEDTAVYYCARDGVIPPRFDYWGQGTLVTVSS
VL: not shown
B2: HL CV07-222 (antibody, V domains shown)
VH: QVQLVQSGAEVKKPGASVKVSCKASGYTFTDYYVHWVRQAPGQGLEWMGWINPISGGTNYAQKFQGRVTMTRDTSISTAYMELSRLRSDDTAVYYCARGPYYYDSSGSLGAFDIWGQGTMVTVSS
VL: QSALTQPASVSGSPGQSITISCTGTSSDVGSYNLVSWYQQHPGKAPKLMIYEGSKRPSGVSNRFSGSKSGNTASLTISGLQAEDEAHYYCCSYAGGSTSYVFGTGTKVTVLG
B3: HL CV07-262 (antibody, V domains shown)
VH: QVQLVQSGAEVKKPGASVKVSCKASGYTFTGYYMHWVRQAPGQGLEWMGWINPNSGGTNYAQTFQGRVTMTRDTSITTTYMELSRLRSDDTAVYYCARVGWYDFGTPGDYYYYYGMDVWGQGTTVTVSS
VL: QSALTQPASVSGSPGQSITISCTGTSSDVGSYNLVSWYQQHPGKAPKLMIYEGSKRPSGVSNRFSGSKSGNTASLTISGLQAEDEADYFCCSYAGTSTFVFGTGTKVTVLG
B4: HK CV38-113 (antibody, V domains shown)
VH: EVQLVESGGGLVQPGGSLRLSCAASGFTVSSNYMSWVRQAPGKGLEWVSVIYSGGSTYYADSVKGRFTISRHNSKNTLYLQMNSLRAEDTAVYFCARGGRLADAAGDYWGQGTLVTVSS
VL: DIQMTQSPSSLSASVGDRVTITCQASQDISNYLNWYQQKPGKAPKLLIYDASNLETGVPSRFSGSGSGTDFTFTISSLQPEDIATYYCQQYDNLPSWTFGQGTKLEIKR
B5: HL CV07-255 (antibody, V domains shown)
VH: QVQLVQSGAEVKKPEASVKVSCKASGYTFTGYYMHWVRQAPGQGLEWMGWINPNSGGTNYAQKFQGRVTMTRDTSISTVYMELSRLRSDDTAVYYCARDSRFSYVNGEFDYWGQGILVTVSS
VL: B3 VL with G24R, G30E, G53V, V60I, F89Y, T96H, F99W, T103G, K106E, V107L
B6: HK CVX2-106 (antibody, V domains shown)
VH: QVQLVQSGAEVKKPGSSVKVSCKASGGTFSSYAISWVRQAPGQGLEWMGGIIPIFGTANYAQKFQGRVTITADESTSTAYMELSSLRSEDTAVYYCATRKETTVTTSLVYGMDVWGQGTTVTVSS
VL: not shown
B7: HL CV07-270 (antibody, V domains shown)
VH: QVQLVESGGGLVKPGGSLRLSCAASGFTFSDYYMTWIRQAPGKGLEWVSYISSSGSTIYYADSVKGRFTISRDNAKNSLYLQMNSLRAEDTAVYYCARARGSSGWYRIGTRWGNWFDPWGQGTLVTVSS
VL: QSALTQPASVSGSPGQSITISCTGTSSDVGGYNYVSWYQQHPGKAPKLMIYEVSNRPSGVSNRFSGSKSGNTASLTISGLQAEDEADYYCSSYTSSSNVVFGGGTMLTVLG
B8: HK CV38-139 (antibody, V domains shown)
VH: EVQLVESGGGLVQPGGSLRLSCAASGFTVSSNYMSWVRQAPGKGLEWVSVFYSGGSTFYADSVKGRFTISRDNSKNTLYLQMNSLRAEDTAVYYCARGHYDLFDYWGQGTLVTVSS
VL: DIQLTQSPSFLSASVGDRVTITCRASQGISSYLAWYQQKPGKAPKLLIYAASTLQSGVPSRFSGSGSGTEFTLTISSLQPEDFATYYCQQLNSYPPGTFGPGTKVDIKR
B9: HK CV38-221 (antibody, V domains shown)
VH: EVQLVESGGGLVQPGGSLRLSCAASGITVSSNYMIWVRQAPGKGLEWVSVIYSGGSTYYADSVKGRFTISRDNSKNTLYLQMNSLRAEDTAVYYCARGFGDYYFDYWGQGTLVTVSS
VL: EIVLTQSPGTLSLSPGERATLSCRASQSVSSSYFAWYQQKPGQAPRLLIYGASSRATGIPDRFSGSGSGTDFTLTISRLEPEDFAVYYCQQLYTFGQGTKLEIKR
B10: HK CVX1-126 (antibody, V domains shown)
VH: EVQLVESGGGLVQPGGSLRLSCAASGLTVSSNYMSWVRQAPGKGLEWVSVIYSGGSTYYADSVKGRFTISRHNSKNTLYLQMNSVRAEDTAVYYCARDLSEGGMDVWGQGTTVTVSS
VL: DIQMTQSPSSVSASVGDRVTITCRASQGISSWLAWYQQKPGKAPKLLIYAASTLQSGVPSRFSGSGSGTDFTLTISSLQPEDFATYYCQQANGFPPLFGGGTKVEIKR
B11: HL CV07-267 (antibody, V domains shown)
VH: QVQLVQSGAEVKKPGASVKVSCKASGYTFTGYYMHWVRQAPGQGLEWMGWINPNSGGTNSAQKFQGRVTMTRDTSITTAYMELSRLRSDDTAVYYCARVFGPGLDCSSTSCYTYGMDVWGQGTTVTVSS
VL: B3 VL with G53V, F89Y, T96S, T98S, F99W, T103G, V107L

What follows are binders tested against T1, Spike protein of authentic SARS-CoV-2 (Munich isolate 984) (SARS-CoV-2, UniProt P0DTC2 14-1273) (assay: cell-based or functional assay).
For B1, the “IC50 (PRNT, authentic SARS-CoV-2)” value was 0.0031 µg/mL. With B2 the “IC50 (PRNT, authentic SARS-CoV-2)” value was 0.0078 µg/mL. With B3 the “IC50 (PRNT, authentic SARS-CoV-2)” value was 0.0071 µg/mL. With B4 the “IC50 (PRNT, authentic SARS-CoV-2)” value was 0.0208 µg/mL. B5 was tested, and the “IC50 (PRNT, authentic SARS-CoV-2)” value was 0.0145 µg/mL. B6 was tested, and the “IC50 (PRNT, authentic SARS-CoV-2)” value was 0.0176 µg/mL. For B7, the “IC50 (PRNT, authentic SARS-CoV-2)” value was 0.0823 µg/mL. B8 was tested, and the “IC50 (PRNT, authentic SARS-CoV-2)” value was 0.0732 µg/mL. In the case of B9, the “IC50 (PRNT, authentic SARS-CoV-2)” value is reported as 0.173 µg/mL. In the case of B10, the “IC50 (PRNT, authentic SARS-CoV-2)” value is reported as 0.0717 µg/mL.

What follows are binders tested against beta-2 microglobulin (Homo sapiens (Human), UniProt P61769 21-119) (assay: routine laboratory ELISA).
Chain of beta-2 microglobulin (P61769 21-119 limits assumed): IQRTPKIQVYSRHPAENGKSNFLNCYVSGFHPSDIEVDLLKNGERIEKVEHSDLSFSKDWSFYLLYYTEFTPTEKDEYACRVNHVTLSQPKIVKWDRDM
B1: no binding (tested: 50 µg/ml). B2: no binding (tested: 50 µg/ml). B3: no binding (tested: 50 µg/ml). B4: no binding (tested: 50 µg/ml). B5: no binding (tested: 50 µg/ml). B6: no binding (tested: 50 µg/ml). B7: no binding (tested: 50 µg/ml). B8: no binding (tested: 50 µg/ml). B9: no binding (tested: 50 µg/ml). B10: no binding (tested: 50 µg/ml).

What follows are binders tested against T2, Fc fusion protein of the RBD-SD1 region of HCoV-HKU1 (HCoV-HKU1, UniProt Q5MQD0 310-677) (assay: ELISA on captured RBD-SD1-Fc).
T2 construct: domain: RBD-SD1 region
T2 sequence: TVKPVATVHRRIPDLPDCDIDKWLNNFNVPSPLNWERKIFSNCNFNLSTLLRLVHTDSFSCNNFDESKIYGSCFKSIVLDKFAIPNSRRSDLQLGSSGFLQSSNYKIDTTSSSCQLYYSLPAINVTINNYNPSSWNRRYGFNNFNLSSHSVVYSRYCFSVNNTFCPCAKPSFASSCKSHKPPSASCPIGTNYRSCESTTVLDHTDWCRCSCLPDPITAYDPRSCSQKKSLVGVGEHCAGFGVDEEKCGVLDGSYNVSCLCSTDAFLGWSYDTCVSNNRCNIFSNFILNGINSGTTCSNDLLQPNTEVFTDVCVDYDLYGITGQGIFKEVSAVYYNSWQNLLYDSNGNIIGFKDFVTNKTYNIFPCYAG
B1: no binding (tested: 1 µg/ml). B2: no binding (tested: 1 µg/ml). B3: no binding (tested: 1 µg/ml). B4: no binding (tested: 1 µg/ml). B5: no binding (tested: 1 µg/ml). B6: no binding (tested: 1 µg/ml). B7: no binding (tested: 1 µg/ml). B8: no binding (tested: 1 µg/ml). B9: no binding (tested: 1 µg/ml). B10: no binding (tested: 1 µg/ml).

Each binder was assayed against T3, Fc fusion protein of the RBD-SD1 region of MERS-CoV (MERS-CoV, UniProt K9N5Q8 367-655) (assay: ELISA on captured RBD-SD1-Fc).
T3 sequence: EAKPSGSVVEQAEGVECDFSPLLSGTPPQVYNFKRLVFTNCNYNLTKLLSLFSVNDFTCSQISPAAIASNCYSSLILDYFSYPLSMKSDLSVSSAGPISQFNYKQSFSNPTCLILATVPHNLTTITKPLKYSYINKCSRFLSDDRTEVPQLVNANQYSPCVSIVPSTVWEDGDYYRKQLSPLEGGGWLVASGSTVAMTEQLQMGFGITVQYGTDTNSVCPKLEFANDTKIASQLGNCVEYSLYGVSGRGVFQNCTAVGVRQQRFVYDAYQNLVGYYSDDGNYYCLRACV
B1: no binding (tested: 1 µg/ml). B2: no binding (tested: 1 µg/ml). B3: no binding (tested: 1 µg/ml). B4: no binding (tested: 1 µg/ml). B5: no binding (tested: 1 µg/ml). B6: no binding (tested: 1 µg/ml). B7: no binding (tested: 1 µg/ml). B8: no binding (tested: 1 µg/ml). B9: no binding (tested: 1 µg/ml). B10: no binding (tested: 1 µg/ml).

Each binder was assayed against T4, Fc fusion protein of the RBD-SD1 region of HCoV-OC43 (HCoV-OC43, UniProt P36334 318-675) (assay: ELISA on captured RBD-SD1-Fc).
T4 construct: domain: RBD-SD1 region
T4 sequence: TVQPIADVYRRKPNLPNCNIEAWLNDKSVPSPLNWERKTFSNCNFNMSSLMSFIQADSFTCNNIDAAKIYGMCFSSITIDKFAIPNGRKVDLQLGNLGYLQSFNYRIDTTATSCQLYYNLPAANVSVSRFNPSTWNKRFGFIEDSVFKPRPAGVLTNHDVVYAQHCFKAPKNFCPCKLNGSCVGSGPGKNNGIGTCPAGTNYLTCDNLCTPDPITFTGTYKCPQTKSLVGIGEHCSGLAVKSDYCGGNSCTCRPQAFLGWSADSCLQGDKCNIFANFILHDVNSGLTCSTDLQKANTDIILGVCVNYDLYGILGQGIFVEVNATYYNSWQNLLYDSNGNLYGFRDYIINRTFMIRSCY
B1: no binding (tested: 1 µg/ml). B2: no binding (tested: 1 µg/ml). B3: no binding (tested: 1 µg/ml). B4: no binding (tested: 1 µg/ml). B5: no binding (tested: 1 µg/ml). B6: no binding (tested: 1 µg/ml). B7: no binding (tested: 1 µg/ml). B8: no binding (tested: 1 µg/ml). B9: no binding (tested: 1 µg/ml). B10: no binding (tested: 1 µg/ml).

These binders were tested against Fc fusion protein of the RBD-SD1 region of SARS-CoV (SARS-CoV, UniProt P59594 306-577) (assay: ELISA on captured RBD-SD1-Fc).
B1: no binding (tested: 1 µg/ml). B2: no binding (tested: 1 µg/ml). B3: no binding (tested: 1 µg/ml). B4: no binding (tested: 1 µg/ml). B5: no binding (tested: 1 µg/ml). B6: no binding (tested: 1 µg/ml). B7: no binding (tested: 1 µg/ml). B8: no binding (tested: 1 µg/ml). B9: no binding (tested: 1 µg/ml). B10: no binding (tested: 1 µg/ml).

What follows are binders tested against SARS-CoV-2 S protein-RBD-mFc (SARS-CoV-2, UniProt P0DTC2 319-537) (assay: not given).
For B1, the Kd was 0.006 nM. For B2, the Kd was 0.00697 nM. For B3, the Kd was 0.079 nM. B4 gave a Kd of 0.134 nM. Work on B8 yielded a Kd of 0.277 nM. B9 showed a Kd of 0.499 nM. For B10, the Kd was 0.243 nM.

Target: T1, Spike protein of authentic SARS-CoV-2 …
Experiment: cell-based or functional assay
Parameters: IC90 Neutralizing Assay: unit not given beside the values
Remark: another data set of the same source
In the case of B1, the “IC50 Neutralizing Assay” value is reported as less than 0.05 µg/mL. For B2, the “IC50 Neutralizing Assay” value was less than 0.05 µg/mL. B3 was tested, and the “IC50 Neutralizing Assay” value was less than 0.05 µg/mL and the “IC90 Neutralizing Assay” value was roughly 500. With B4 the “IC50 Neutralizing Assay” value was roughly 0.05 µg/mL. B5 was tested, and the “IC50 Neutralizing Assay” value was roughly 0.05 µg/mL. With B6 the “IC50 Neutralizing Assay” value was roughly 0.5 µg/mL. For B11, the “IC50 Neutralizing Assay” value was roughly 500. In the case of B7, the “IC90 Neutralizing Assay” value is reported as roughly 500.

Source: patent publication US20240376180A1 (DEUTSCHES ZENTRUM FUR NEURODEGENERATIVE ERKRANKUNGEN E V …, published 2024)
